The nanobody polyreactivity screen of Harvey et al. (2022)

Assay: yeast display, Sf9 membrane polyspecificity reagent, FACS + sequencing; frameworks hold sequencing errors
Procedure, shortened: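 Nanobodies came from a synthetic yeast display library in Saccharomyces cerevisiae BJ5465, induced with galactose for 36–48 hours and stained for 1 hour at 4 °C with 10% biotinylated, detergent-solubilized Sf9 membrane reagent. Cells were enriched on streptavidin microbeads and then FACS-sorted, with low and high (top ~1%) gates set on anti-HA fluorescence for expression and streptavidin fluorescence for reagent binding. Each polyreactivity label reflects the gate a clone came from. Genes were amplified by colony PCR, sequenced by MiSeq 2 × 250 and filtered by CDR length.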

| Sequence | polyreactivity (PSR sort gate) |
| --- | --- |
| QVQLVESGGGLVQAGGSLRLSCAASGRIFVRYVMGWYRQAPGKERELVAAITKSGASTYYADSVKGRFTISRDNAKNTVYLQMNSLKPEDTAVYYCNRDLVDSYGYWGQGTQVTVSS | high polyreactivity |
| QVQLVESGGGLVQAGGSLRLSCAASGRIFVSNAMGWYRQAPGKERELVAAISKSGGRTYYADSVKGRFTISRVNAKNTVYLQMNSLKPEDTAVYYCAARSRVSPRYDYWGQGTQVTVSS | high polyreactivity |
| QVQLVESGGGLVQAGGSLRLSCAASGRIFVSNARGWYRQSPGKECELVAAISKSAARTAYADSVKGRFTISRDTAKNTVYLQMNSLKPEDTAVYYCNADRYRLYGESKGEGNYWGQGTQVTVSS | high polyreactivity |
| QVQLVESGGGLVQAGGSLRLSCAASGRIFVSNGMGWYRQAPGKESELVAVIRSSTGSTYYADSVKGRFTISRDNAKNTVYLQMNSLKPEDTAVYYCAAPNPFFEPSEYDYWAQGTQVTVSS | low polyreactivity |
| QVQLVESGGGLVQAGGSLRLSCAASGRIFVSYAMGWYRQAPGKERELVAAINWNGDRTYYADSVKGRFTISRDNAKNTVYLQMNSLKPEDSAVYYCNTDSILLPYDYWGQGTQVTVSS | low polyreactivity |
| QVQLVESGGGLVQAGGSLRLSCAASGRIFVSYAMGWYRQAPGKERELVAAINWNGDRTYYADSVKGRFTISRDNATNTVYLQMNSLKPEDTAVYYCNTDSILLPYDYWGQGTQVTVSS | low polyreactivity |
| QVQLVESGGGLVQAGGSLRLSCAASGRIFVSYAMGWYRQAPGKERELVAGISSSGGSTYYADSVKGRFTISRDNAKNTVYLQMNSLKPEDTAVYYCNTDQRSRMDYWGQGTQVTVSS | low polyreactivity |
| QVQLVESGGGLVQAGGSLRLSCAASGRIFVTNAMGWYRQAPGKERELVASISSGGRTHYADSVKGRFTISRDNAKNTVYLQMNSLKPEDTAVYYCAKPPLYYYPALRGEEFYYWGQGTQVTVSS | low polyreactivity |
| QVQLVESGGGLVQAGGSLRLSCAASGRIFVTNDMGWYRQAPGKETELVAAINWNGDSTNYADSVKGRFTISRDNAKNTVYLQLNSLKPEDTAVYYCAAGWFTRDTLAGYDYWGKGTQVTVSS | low polyreactivity |
| QVQLVESGGGLVQAGGSLRLSCAASGRIFVVNAMGWYRQAPGNERELVAAISSSSDSTYYADSVKGRCTISRDNAKNTVYLQMNSLKPEDTAVYYCAADYHYDGYWIYDYWGQGTQVTVSS | high polyreactivity |
| QVQLVESGGGLVQAGGSLRLSCAASGRIFVVNTMGWYRQAPGKERELVAAISFSGVSTYYADSVKGRFTISRDNAKNTVYLQMISLKPEDTAVYYCAAVPYRQYPGGGYWGQGTQVTVSS | low polyreactivity |
| QVQLVESGGGLVQAGGSLRLSCAASGRIFVVYAMGWYRQEPGKERELVAAITGGGRTNYADSVKGRFTISRDNAKNTVYLHMNSLKPEATAVYYCAAGTRSDARRYYYWGQGTQVTVSS | low polyreactivity |
| QVQLVESGGGLVQAGGSLRLSCAASGRIFVWNAMGWYRQAPGKERELVAAITSSGGNTYYADSVKGRFTISRDNAKNNVYLQMNSLKQEDTAVYYCAAAGGAWARYRFNYWGQGTQVTVSS | high polyreactivity |
| QVQLVESGGGLVQAGGSLRLSCAASGRIFVWYDMGWYRQAPGKERELVAAISWGGGTNYADSVKGRFTISRDNAKNTVYLQMNSLKPEDTAVYYCAAAPSYYYFVRYVPSDIEGYWGQGTQVTVSS | low polyreactivity |
| QVQLVESGGGLVQAGGSLRLSCAASGRIFVYNAMGWYRQAPGKERELVAAITRGGSTYYADSVKGRFTISRDNAKNTVYLQMNSLNPEDTAVYYCASDYQRNDFRWYDYWGQGTQVTVSS | low polyreactivity |
| QVQLVESGGGLVQAGGSLRLSCAASGRIFVYNAMGWYRQAPGKERELVASITSSGGSTYYADSVKGRFTISRDNAKNTVYLQMNSLKPEDTAVYYCAADVQPDTRSTPEMDYWGQGTQVTVSS | low polyreactivity |
| QVQLVESGGGLVQAGGSLRLSCAASGRIFVYYAMGGYRQAPGKERELVATISTGGSTYYADSVKGRFTISRDNAKNTVYLQMNSLKPEDTAVYYCASDNVNLYLAYYYKGDYWGQGTQVTVSS | low polyreactivity |
